Consider three molecules from patent US20220204580A1 (AstraZeneca / MedImmune, published 2022).

Numbered stars: 1 amine (or outer) side, 2 acyl side, 3 side chain; on linkers, the order of the positions; unused ones are H or OH. Bridge positions count the residues as written; N and C are the ends. Square brackets hold non-standard residues; d marks the D form. Side chains are listed from the residue outwards. Ends that are not written are not given here. * marks the point of attachment. C18 diacid = O=C(O)CCCCCCCCCCCCCCCCC(=O)*; γGlu = O=C(O)[C@H](CCC(=O)[*:2])N[*:1]; αMeF = C[C@](N)(Cc1ccccc1)C(=O)O; Aib = CC(C)(N)C(=O)O

Holding throughout (assay): cell-based or functional assay
Assay [1] deals with T1, human calcitonin receptor (human, UniProt P30988 25-474).
T1 sequence (looked up): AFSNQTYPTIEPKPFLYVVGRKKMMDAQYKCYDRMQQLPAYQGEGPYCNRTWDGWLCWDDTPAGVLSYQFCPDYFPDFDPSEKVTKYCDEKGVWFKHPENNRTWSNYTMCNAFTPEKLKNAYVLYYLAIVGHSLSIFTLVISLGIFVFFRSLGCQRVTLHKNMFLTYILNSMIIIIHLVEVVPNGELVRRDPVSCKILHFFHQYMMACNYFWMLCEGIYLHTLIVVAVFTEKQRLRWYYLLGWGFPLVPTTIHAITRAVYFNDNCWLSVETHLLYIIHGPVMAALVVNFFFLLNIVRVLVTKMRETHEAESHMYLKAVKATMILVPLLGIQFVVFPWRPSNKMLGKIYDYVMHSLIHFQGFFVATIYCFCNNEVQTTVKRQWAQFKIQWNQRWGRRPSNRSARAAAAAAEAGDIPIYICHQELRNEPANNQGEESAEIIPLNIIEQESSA

Assay [2] addresses T2, human amylin receptor (calcitonin receptor co-expressed with receptor activity modifying protein, RAMP3) (human, UniProt P30988 25-474; O60896 24-148).
T2 sequence (looked up) 1: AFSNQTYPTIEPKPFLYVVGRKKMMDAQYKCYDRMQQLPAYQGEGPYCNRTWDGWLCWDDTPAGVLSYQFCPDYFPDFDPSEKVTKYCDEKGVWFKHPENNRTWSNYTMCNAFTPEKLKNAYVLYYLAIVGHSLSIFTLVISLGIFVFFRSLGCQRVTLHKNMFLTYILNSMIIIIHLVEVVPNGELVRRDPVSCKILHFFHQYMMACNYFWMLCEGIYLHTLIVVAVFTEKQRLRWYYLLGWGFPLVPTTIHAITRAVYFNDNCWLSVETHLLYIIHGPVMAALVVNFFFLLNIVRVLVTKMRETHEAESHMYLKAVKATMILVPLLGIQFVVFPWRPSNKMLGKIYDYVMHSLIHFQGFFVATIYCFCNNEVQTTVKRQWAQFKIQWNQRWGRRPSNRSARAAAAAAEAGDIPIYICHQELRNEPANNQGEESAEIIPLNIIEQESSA
T2 sequence (looked up) 2: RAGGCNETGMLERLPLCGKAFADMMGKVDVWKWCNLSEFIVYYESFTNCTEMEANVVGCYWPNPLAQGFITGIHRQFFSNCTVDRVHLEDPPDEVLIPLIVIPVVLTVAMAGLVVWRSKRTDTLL

For a further assay, the target named is T3, rat calcitonin receptor (rat, UniProt P32214 25-516).
T3 sequence (looked up): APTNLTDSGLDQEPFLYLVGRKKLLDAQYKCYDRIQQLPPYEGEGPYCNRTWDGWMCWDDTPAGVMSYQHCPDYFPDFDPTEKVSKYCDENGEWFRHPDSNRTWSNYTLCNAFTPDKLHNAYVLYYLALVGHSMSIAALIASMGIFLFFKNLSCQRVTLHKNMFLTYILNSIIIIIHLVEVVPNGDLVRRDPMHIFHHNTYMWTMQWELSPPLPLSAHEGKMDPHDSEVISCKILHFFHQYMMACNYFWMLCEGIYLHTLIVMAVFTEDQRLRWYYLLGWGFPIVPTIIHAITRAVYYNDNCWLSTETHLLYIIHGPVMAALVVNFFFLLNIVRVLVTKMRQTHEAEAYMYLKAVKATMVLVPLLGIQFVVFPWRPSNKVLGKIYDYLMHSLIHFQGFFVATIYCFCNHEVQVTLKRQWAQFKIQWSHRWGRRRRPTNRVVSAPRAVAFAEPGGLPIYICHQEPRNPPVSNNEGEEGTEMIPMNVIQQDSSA

The target of assay [3] is T4, rat amylin receptor (calcitonin receptor co-expressed with receptor activity modifying protein, RAMP3) (rat, UniProt P32214 25-516; Q9JJ73 23-147).
T4 sequence (looked up) 1: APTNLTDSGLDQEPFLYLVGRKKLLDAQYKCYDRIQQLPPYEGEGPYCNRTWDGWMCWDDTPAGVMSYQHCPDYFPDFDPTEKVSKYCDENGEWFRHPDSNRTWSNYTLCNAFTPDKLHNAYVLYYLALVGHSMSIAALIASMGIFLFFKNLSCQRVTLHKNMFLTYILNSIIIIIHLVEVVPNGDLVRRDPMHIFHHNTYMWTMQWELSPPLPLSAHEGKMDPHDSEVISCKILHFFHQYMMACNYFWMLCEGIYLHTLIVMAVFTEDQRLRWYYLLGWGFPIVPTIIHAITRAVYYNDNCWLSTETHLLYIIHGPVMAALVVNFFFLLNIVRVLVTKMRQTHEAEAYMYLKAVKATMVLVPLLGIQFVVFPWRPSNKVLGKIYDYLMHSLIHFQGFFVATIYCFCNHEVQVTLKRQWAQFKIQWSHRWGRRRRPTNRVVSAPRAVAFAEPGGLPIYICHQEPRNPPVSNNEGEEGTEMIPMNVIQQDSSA
T4 sequence (looked up) 2: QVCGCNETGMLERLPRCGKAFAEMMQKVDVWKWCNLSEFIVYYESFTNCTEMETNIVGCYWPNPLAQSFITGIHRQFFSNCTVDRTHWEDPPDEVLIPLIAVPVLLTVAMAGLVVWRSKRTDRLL

B1: Peptide 15 (SEQ ID NO: 15) (peptide)
peptide: K([γGlu-C18 diacid])KCNTATCATQRLANFLRHSSNN[αMeF]GPILPPTEVGSNTY-NH2
modifications: disulfide 3-8; N-terminus assumed
SMILES: CC[C@H](C)[C@H](NC(=O)[C@@H]1CCCN1C(=O)CNC(=O)[C@](C)(Cc1ccccc1)NC(=O)[C@H](CC(N)=O)NC(=O)[C@H](CC(N)=O)NC(=O)[C@H](CO)NC(=O)[C@H](CO)NC(=O)[C@H](Cc1c[nH]cn1)NC(=O)[C@H](CCCNC(=N)N)NC(=O)[C@H](CC(C)C)NC(=O)[C@H](Cc1ccccc1)NC(=O)[C@H](CC(N)=O)NC(=O)[C@H](C)NC(=O)[C@H](CC(C)C)NC(=O)[C@H](CCCNC(=N)N)NC(=O)[C@H](CCC(N)=O)NC(=O)[C@@H](NC(=O)[C@H](C)NC(=O)[C@@H]1CSSC[C@H](NC(=O)[C@H](CCCCN)NC(=O)[C@@H](N)CCCCNC(=O)CC[C@H](NC(=O)CCCCCCCCCCCCCCCCC(=O)O)C(=O)O)C(=O)N[C@@H](CC(N)=O)C(=O)N[C@@H]([C@@H](C)O)C(=O)N[C@@H](C)C(=O)N[C@@H]([C@@H](C)O)C(=O)N1)[C@@H](C)O)C(=O)N[C@@H](CC(C)C)C(=O)N1CCC[C@H]1C(=O)N1CCC[C@H]1C(=O)N[C@H](C(=O)N[C@@H](CCC(=O)O)C(=O)N[C@H](C(=O)NCC(=O)N[C@@H](CO)C(=O)N[C@@H](CC(N)=O)C(=O)N[C@H](C(=O)N[C@@H](Cc1ccc(O)cc1)C(N)=O)[C@@H](C)O)C(C)C)[C@@H](C)O
Consider B1, for which the “EC50 (cAMP production)” value in assay [1] was determined as 5.46 nM; in assay [2] it was 522 pM; with rat calcitonin receptor it was 1820 pM; in assay [3], 10.3 pM. Also, the “Ratio (EC50 hCTR / EC50 hAMYR3)” value in assay [2] came out at 10.

Turning to {C18 diacid}-[γGlu]KCNTATCATQRLANFLVHSSNNFGPILPPTNVGSNTY-NH2 (disulfide 3-8) [Peptide 3 (SEQ ID NO: 3)], the “EC50 (cAMP production)” value in assay [1] amounted to 1.35 nM; in assay [2] it was 246 pM; with rat calcitonin receptor it was 186 pM; in assay [3] it was 2.9 pM. The “Ratio (EC50 hCTR / EC50 hAMYR3)” value in assay [2] amounted to 5.

B2: Peptide 129 (SEQ ID NO: 129) (peptide)
peptide: K([γGlu-C18 diacid])KCNTATCATQRLANFL[Aib]HSSNNFGPILPPTNVGSNTY-NH2
modifications: disulfide 3-8; N-terminus assumed
SMILES: CC[C@H](C)[C@H](NC(=O)[C@@H]1CCCN1C(=O)CNC(=O)[C@H](Cc1ccccc1)NC(=O)[C@H](CC(N)=O)NC(=O)[C@H](CC(N)=O)NC(=O)[C@H](CO)NC(=O)[C@H](CO)NC(=O)[C@H](Cc1c[nH]cn1)NC(=O)C(C)(C)NC(=O)[C@H](CC(C)C)NC(=O)[C@H](Cc1ccccc1)NC(=O)[C@H](CC(N)=O)NC(=O)[C@H](C)NC(=O)[C@H](CC(C)C)NC(=O)[C@H](CCCNC(=N)N)NC(=O)[C@H](CCC(N)=O)NC(=O)[C@@H](NC(=O)[C@H](C)NC(=O)[C@@H]1CSSC[C@H](NC(=O)[C@H](CCCCN)NC(=O)[C@@H](N)CCCCNC(=O)CC[C@H](NC(=O)CCCCCCCCCCCCCCCCC(=O)O)C(=O)O)C(=O)N[C@@H](CC(N)=O)C(=O)N[C@@H]([C@@H](C)O)C(=O)N[C@@H](C)C(=O)N[C@@H]([C@@H](C)O)C(=O)N1)[C@@H](C)O)C(=O)N[C@@H](CC(C)C)C(=O)N1CCC[C@H]1C(=O)N1CCC[C@H]1C(=O)N[C@H](C(=O)N[C@@H](CC(N)=O)C(=O)N[C@H](C(=O)NCC(=O)N[C@@H](CO)C(=O)N[C@@H](CC(N)=O)C(=O)N[C@H](C(=O)N[C@@H](Cc1ccc(O)cc1)C(N)=O)[C@@H](C)O)C(C)C)[C@@H](C)O
B2: the “EC50 (cAMP production)” value in assay [1] was 5.75 nM; in assay [2], 553 pM; with rat calcitonin receptor it was 2870 pM; in assay [3] it was 11.2 pM. Besides, the “Ratio (EC50 hCTR / EC50 hAMYR3)” value in assay [2] was determined as 10.4.
